Data as given in US20140274782A1, “AFFINITY REAGENTS AND METHODS FOR DETECTION, PURIFICATION, AND PROTEOMIC ANALYSIS OF METHYLATED PROTEINS” (The Board of Trustees of the Leland Stanford Junior …, priority 2013, published 2014).

What was measured:
[1] = target: CRB3-crumbs homolog 3 (Drosophila) (CRB3), transcript variant 2 (human) (UniProt Q9BUF7); experiment: ProtoArray, GST-treated control array
[2] = target: AP1S1-adaptor-related protein complex 1, sigma 1 subunit (AP1S1), transcript variant 1 (human) (UniProt P61966); experiment: ProtoArray, GST-treated control array
[3] = target: NME1-non-metastatic cells 1, protein (NM23A) expressed in (NME1), transcript variant 2 (human) (UniProt P15531); experiment: ProtoArray, GST-treated control array
Chain of NME1-non-metastatic cells 1, protein (NM23A) expressed in (NME1), transcript variant 2 (human) (P15531 whole entry, change not shown): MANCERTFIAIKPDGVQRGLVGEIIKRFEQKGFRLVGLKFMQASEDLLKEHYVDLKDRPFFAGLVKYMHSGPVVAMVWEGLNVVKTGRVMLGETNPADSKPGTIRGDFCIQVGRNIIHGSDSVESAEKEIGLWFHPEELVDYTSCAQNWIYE

[4] = target: LPAL2-lipoprotein, Lp(a)-like 2 (LPAL2), transcript variant 1 (human) (UniProt Q16609); experiment: ProtoArray, GST-treated control array
Chain of LPAL2-lipoprotein, Lp(a)-like 2 (LPAL2), transcript variant 1 (human) (Q16609 22-132, change not shown): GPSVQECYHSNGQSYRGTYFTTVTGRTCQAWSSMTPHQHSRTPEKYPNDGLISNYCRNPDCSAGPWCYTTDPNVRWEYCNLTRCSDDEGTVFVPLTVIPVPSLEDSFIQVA

[5] = target: DYNC2LI1-dynein, cytoplasmic 2, light intermediate chain 1, mRNA (cDNA clone MGC:12166 IMAGE:3828551), complete cds (human) (UniProt Q8TCX1); experiment: ProtoArray, GST-treated control array
[6] = target: ACSL4-acyl-CoA synthetase long-chain family member 4 (ACSL4), transcript variant 2 (human) (UniProt O60488); experiment: ProtoArray, GST-treated control array
[7] = target: PHF20L1-PHD finger protein 20-like 1 (PHF20L1), transcript variant 3 (human) (UniProt A8MW92); experiment: ProtoArray, GST-treated control array
Chain of PHF20L1-PHD finger protein 20-like 1 (PHF20L1), transcript variant 3 (human) (A8MW92 other isoform, or with tags, fused parts or gaps mutant): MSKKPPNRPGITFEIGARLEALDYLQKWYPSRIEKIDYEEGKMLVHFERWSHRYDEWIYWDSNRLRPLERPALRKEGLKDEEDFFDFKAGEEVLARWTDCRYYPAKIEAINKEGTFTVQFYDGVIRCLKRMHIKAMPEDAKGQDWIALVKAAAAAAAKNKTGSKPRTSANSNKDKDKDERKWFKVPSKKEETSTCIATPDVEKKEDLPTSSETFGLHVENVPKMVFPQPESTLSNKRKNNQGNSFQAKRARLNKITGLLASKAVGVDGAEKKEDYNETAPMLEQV

[8] = target: RTN1-reticulon 1 (RTN1), transcript variant 3 (human) (UniProt Q16799); experiment: ProtoArray, GST-treated control array
Chain of RTN1-reticulon 1 (RTN1), transcript variant 3 (human) (Q16799 other isoform, or with tags, fused parts or gaps mutant): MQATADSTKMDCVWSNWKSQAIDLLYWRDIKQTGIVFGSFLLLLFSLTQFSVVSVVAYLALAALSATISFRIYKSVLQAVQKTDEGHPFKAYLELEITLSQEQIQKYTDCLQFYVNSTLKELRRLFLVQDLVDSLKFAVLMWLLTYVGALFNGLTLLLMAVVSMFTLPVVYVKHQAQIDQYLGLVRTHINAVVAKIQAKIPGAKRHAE

[9] = target: ZNF695-zinc finger protein 695 (ZNF695) (human) (UniProt Q8IW36); experiment: ProtoArray, GST-treated control array
[10] = target: MRPL21-mitochondrial ribosomal protein L21 (MRPL21), nuclear gene encoding mitochondrial protein, transcript variant 1 (human) (UniProt Q7Z2W9); experiment: ProtoArray, GST-treated control array
[11] = target: C1QTNF6-C1q and tumor necrosis factor related protein 6 (C1QTNF6), transcript variant 1 (human) (UniProt Q9BXI9); experiment: ProtoArray, GST-treated control array
[12] = target: DNTT-deoxynucleotidyltransferase, terminal (DNTT), transcript variant 1 (human) (UniProt P04053); experiment: ProtoArray, GST-treated control array
Chain of DNTT-deoxynucleotidyltransferase, terminal (DNTT), transcript variant 1 (human) (P04053 whole entry, change not shown): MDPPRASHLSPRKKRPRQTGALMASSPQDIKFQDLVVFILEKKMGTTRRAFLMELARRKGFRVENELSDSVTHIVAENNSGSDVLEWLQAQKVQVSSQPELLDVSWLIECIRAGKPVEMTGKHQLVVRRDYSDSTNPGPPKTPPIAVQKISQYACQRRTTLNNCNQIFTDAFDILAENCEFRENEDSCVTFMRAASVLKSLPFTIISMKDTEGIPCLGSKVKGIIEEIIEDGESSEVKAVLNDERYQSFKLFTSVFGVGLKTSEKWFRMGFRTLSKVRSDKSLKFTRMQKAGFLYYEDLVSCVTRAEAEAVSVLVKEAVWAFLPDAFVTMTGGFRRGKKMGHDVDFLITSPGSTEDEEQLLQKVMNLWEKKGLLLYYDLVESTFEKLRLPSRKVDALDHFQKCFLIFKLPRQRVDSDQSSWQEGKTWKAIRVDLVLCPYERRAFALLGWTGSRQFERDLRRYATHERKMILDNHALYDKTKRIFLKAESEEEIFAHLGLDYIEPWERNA

[13] = target: CDK10-cyclin-dependent kinase (CDC2-like) 10 (CDK10), transcript variant a (human) (UniProt Q15131); experiment: ProtoArray, GST-treated control array
Chain of CDK10-cyclin-dependent kinase (CDC2-like) 10 (CDK10), transcript variant a (human) (Q15131 whole entry, change not shown): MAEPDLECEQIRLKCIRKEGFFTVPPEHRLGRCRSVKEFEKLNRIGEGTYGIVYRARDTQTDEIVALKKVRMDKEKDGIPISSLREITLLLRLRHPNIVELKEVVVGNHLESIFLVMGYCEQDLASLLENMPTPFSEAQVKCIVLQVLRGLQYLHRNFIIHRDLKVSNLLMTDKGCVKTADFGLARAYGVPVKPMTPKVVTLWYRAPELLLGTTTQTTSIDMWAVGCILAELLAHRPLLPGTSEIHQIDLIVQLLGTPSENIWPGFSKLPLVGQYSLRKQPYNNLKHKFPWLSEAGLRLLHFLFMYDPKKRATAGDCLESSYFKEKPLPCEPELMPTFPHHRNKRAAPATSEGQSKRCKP

[14] = target: PPARG-peroxisome proliferator-activated receptor gamma (PPARG), transcript variant 4 (human) (UniProt P37231); experiment: ProtoArray, GST-treated control array
Chain of PPARG-peroxisome proliferator-activated receptor gamma (PPARG), transcript variant 4 (human) (P37231 29-505, change not shown): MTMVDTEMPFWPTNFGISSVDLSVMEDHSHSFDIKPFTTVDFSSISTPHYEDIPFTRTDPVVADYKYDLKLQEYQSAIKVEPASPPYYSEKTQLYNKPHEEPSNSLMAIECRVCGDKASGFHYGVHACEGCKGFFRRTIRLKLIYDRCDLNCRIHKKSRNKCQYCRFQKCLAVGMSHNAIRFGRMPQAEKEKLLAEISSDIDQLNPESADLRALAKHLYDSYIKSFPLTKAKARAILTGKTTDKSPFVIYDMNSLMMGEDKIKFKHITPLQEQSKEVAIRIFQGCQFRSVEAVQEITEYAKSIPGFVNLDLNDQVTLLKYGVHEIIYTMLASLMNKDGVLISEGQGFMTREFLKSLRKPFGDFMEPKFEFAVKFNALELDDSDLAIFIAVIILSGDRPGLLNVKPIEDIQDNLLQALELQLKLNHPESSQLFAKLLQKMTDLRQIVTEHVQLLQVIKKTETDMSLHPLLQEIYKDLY

[15] = target: WDR45-WD repeat domain 45 (WDR45), transcript variant 1 (human) (UniProt Q9Y484); experiment: ProtoArray, GST-treated control array
[16] = target: PAEP-progestagen-associated endometrial protein (placental protein 14, pregnancy-associated endometrial alpha-2-globulin, alpha uterine protein), transcript variant 2 (PAEP) (human) (UniProt P09466); experiment: ProtoArray, GST-treated control array
[17] = target: T1, TMEM32-transmembrane protein 32 (TMEM32) (human) (UniProt Q8N4V1); experiment: ProtoArray, GST-treated control array
T1 sequence (looked up): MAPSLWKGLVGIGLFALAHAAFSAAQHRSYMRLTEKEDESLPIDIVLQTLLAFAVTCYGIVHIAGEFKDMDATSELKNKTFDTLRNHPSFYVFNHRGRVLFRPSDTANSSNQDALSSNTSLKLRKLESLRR

[18] = target: CALN1-calneuron 1 (CALN1), transcript variant 1 (human) (UniProt Q9BXU9); experiment: ProtoArray, GST-treated control array
Chain of CALN1-calneuron 1 (CALN1), transcript variant 1 (human) (Q9BXU9 whole entry, change not shown): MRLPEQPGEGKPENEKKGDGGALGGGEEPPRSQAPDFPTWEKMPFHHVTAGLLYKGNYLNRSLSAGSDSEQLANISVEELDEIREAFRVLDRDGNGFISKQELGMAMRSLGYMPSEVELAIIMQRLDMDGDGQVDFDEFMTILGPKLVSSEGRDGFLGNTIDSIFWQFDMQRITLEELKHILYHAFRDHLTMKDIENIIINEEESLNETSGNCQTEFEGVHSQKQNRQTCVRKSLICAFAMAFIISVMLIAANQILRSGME

[19] = target: VPS29-vacuolar protein sorting 29 homolog (S. cerevisiae) (VPS29), transcript variant 1 (human) (UniProt Q9UBQ0); experiment: ProtoArray, GST-treated control array
[20] = target: LARP6-La ribonucleoprotein domain family, member 6 (LARP6), transcript variant 2 (human) (UniProt Q9BRS8); experiment: ProtoArray, GST-treated control array
Chain of LARP6-La ribonucleoprotein domain family, member 6 (LARP6), transcript variant 2 (human) (Q9BRS8 other isoform, or with tags, fused parts or gaps mutant): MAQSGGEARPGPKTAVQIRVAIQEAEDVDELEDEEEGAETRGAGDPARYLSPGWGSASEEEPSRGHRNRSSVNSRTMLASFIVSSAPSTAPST

[21] = target: TEAD4-TEA domain family member 4 (TEAD4), transcript variant 3 (human) (UniProt Q15561); experiment: ProtoArray, GST-treated control array
Chain of TEAD4-TEA domain family member 4 (TEAD4), transcript variant 3 (human) (Q15561 130-434, change not shown): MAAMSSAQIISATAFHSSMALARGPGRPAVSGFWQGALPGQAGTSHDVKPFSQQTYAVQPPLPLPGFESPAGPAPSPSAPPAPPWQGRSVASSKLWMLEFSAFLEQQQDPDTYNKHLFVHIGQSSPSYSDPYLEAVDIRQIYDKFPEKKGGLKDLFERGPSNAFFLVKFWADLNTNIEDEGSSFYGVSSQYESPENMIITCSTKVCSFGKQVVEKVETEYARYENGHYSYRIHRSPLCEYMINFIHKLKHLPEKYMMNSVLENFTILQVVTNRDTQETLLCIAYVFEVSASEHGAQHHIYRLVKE

[22] = target: NME7-non-metastatic cells 7, protein expressed in (nucleoside-diphosphate kinase) (NME7), transcript variant 2 (human) (UniProt Q9Y5B8); experiment: ProtoArray, GST-treated control array
Chain of NME7-non-metastatic cells 7, protein expressed in (nucleoside-diphosphate kinase) (NME7), transcript variant 2 (human) (Q9Y5B8 37-376, change not shown): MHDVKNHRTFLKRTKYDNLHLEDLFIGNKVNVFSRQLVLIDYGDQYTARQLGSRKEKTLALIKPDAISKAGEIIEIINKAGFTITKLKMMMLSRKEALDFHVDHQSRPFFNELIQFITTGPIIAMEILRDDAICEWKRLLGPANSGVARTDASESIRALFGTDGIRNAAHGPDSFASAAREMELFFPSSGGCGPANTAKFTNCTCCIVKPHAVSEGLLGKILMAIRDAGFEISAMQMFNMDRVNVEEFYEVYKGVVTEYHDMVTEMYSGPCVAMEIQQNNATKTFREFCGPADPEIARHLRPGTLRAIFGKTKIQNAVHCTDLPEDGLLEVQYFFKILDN

[23] = target: GPX5-glutathione peroxidase 5 (epididymal androgen-related protein) (GPX5), transcript variant 2, mRNA. (human) (UniProt O75715); experiment: ProtoArray, GST-treated control array
Chain of GPX5-glutathione peroxidase 5 (epididymal androgen-related protein) (GPX5), transcript variant 2, mRNA. (human) (O75715 other isoform, or with tags, fused parts or gaps mutant): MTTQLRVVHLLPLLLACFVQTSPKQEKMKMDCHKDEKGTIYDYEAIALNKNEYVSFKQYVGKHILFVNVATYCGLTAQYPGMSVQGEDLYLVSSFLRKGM

[24] = target: GYPC-glycophorin C (Gerbich blood group) (GYPC), transcript variant 2 (human) (UniProt P04921); experiment: ProtoArray, GST-treated control array
Chain of GYPC-glycophorin C (Gerbich blood group) (GYPC), transcript variant 2 (human) (P04921 other isoform, or with tags, fused parts or gaps mutant): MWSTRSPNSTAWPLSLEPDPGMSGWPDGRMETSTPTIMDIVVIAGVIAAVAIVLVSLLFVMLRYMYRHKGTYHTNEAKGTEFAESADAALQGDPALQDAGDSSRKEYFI

[25] = target: ACSL4, G9a-methylated (human) (UniProt O60488); experiment: ProtoArray, G9a array SNR minus GST array SNR
[26] = target: SCGB2A2, G9a-methylated (human) (UniProt Q13296); experiment: ProtoArray, G9a array SNR minus GST array SNR
Chain of SCGB2A2, G9a-methylated (human) (Q13296 19-93 limits assumed): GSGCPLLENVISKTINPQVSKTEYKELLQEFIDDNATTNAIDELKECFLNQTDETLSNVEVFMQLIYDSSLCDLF

[27] = target: GNPTAB, G9a-methylated (human) (UniProt Q3T906); experiment: ProtoArray, G9a array SNR minus GST array SNR
[28] = target: HS3ST1, G9a-methylated (human) (UniProt O14792); experiment: ProtoArray, G9a array SNR minus GST array SNR
[29] = target: MAGEH1, G9a-methylated (human) (UniProt Q9H213); experiment: ProtoArray, G9a array SNR minus GST array SNR
[30] = target: FKBP14, G9a-methylated (human) (UniProt Q9NWM8); experiment: ProtoArray, G9a array SNR minus GST array SNR
[31] = target: HIC2, G9a-methylated (human) (UniProt Q96JB3); experiment: ProtoArray, G9a array SNR minus GST array SNR
[32] = target: LRRC20, G9a-methylated (human) (UniProt Q8TCA0); experiment: ProtoArray, G9a array SNR minus GST array SNR
Chain of LRRC20, G9a-methylated (human) (Q8TCA0 whole entry): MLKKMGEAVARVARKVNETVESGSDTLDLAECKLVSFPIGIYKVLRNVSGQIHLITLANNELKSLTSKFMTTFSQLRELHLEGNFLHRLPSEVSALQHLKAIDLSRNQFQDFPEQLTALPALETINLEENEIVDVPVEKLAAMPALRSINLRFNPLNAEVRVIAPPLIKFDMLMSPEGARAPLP

[33] = target: SH3YL1 (hit 65), G9a-methylated (human) (UniProt Q96HL8); experiment: ProtoArray, G9a array SNR minus GST array SNR
Chain of SH3YL1 (hit 65), G9a-methylated (human) (Q96HL8 whole entry): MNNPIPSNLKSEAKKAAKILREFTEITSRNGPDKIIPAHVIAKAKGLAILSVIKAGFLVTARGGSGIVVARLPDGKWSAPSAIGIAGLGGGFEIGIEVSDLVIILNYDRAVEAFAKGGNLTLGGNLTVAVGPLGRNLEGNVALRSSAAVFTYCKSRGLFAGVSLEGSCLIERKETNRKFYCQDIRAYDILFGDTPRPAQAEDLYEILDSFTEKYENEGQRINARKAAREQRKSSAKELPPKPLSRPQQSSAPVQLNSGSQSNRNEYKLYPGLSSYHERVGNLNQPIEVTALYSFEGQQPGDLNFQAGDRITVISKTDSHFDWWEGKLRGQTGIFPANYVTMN

[34] = target: CDK10, G9a-methylated (human) (UniProt Q15131); experiment: ProtoArray, G9a array SNR minus GST array SNR
[35] = target: DGKA, G9a-methylated (human) (UniProt P23743); experiment: ProtoArray, G9a array SNR minus GST array SNR
Chain of DGKA, G9a-methylated (human) (P23743 whole entry): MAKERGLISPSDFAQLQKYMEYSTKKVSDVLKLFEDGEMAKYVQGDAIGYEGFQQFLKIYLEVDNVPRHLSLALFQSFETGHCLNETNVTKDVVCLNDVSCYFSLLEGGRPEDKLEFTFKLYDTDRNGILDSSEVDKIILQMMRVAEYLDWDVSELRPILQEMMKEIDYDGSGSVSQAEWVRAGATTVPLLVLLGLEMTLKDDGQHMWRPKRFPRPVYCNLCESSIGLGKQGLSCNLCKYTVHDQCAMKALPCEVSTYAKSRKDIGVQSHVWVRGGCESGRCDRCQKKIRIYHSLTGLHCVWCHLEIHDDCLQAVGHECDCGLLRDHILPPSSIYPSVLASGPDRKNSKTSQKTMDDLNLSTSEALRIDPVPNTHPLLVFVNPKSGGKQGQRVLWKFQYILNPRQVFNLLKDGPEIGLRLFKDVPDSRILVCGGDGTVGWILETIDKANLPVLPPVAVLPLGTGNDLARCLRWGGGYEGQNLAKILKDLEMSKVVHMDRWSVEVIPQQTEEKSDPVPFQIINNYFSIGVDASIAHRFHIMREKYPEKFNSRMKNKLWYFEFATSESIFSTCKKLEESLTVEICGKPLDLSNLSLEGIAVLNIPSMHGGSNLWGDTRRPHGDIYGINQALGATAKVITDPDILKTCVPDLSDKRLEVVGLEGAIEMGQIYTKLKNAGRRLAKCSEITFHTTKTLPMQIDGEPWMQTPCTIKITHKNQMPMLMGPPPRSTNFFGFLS

Chain of CRB3-crumbs homolog 3 (Drosophila) (CRB3), transcript variant 2 (human) (Q9BUF7 27-120, change not shown): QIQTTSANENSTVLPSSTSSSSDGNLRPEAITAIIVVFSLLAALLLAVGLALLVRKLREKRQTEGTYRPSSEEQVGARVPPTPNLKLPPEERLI

GST Average SNR [1]: -0.25
GST Average SNR [3]: 1.06
GST Average SNR [4]: 0.282
GST Average SNR [5]: -0.778
GST Average SNR [6]: 1.41
GST Average SNR [7]: 1.13
GST Average SNR [8]: 0.954
GST Average SNR [9]: 1.5
GST Average SNR [10]: 1.41
GST Average SNR [12]: 0.378
GST Average SNR [13]: 0.366
GST Average SNR [14]: -0.436
GST Average SNR [15]: 1.35
GST Average SNR [16]: 0.998
GST Average SNR [17]: 1.5
GST Average SNR [18]: -0.055
GST Average SNR [19]: 1.09
GST Average SNR [20]: -1.03
GST Average SNR [21]: 0.753
GST Average SNR [22]: 0.543
GST Average SNR [23]: -0.0425
GST Average SNR [24]: 0.081
G9a-GST [25]: 12.1
G9a-GST [26]: 13.8
G9a-GST [27]: 15.3
G9a-GST [28]: 13.2
G9a-GST [29]: 42.9
G9a-GST [30]: 13.7
G9a-GST [31]: 16.1
G9a-GST [32]: 30.9
G9a-GST [33]: 16.2
G9a-GST [34]: 13.2
G9a-GST [35]: 14.3
Substance: 3× Flag-3×MBT (designed binder)
GST Average SNR [2]: 1.2
GST Average SNR [11]: -0.38
